In paper PMC9122904, “Insights into the client protein release mechanism of the ATP-independent chaperone Spy” (Nature Communications, 2022):
Where a chain is given by its changes, count along the chain named. Names and notes keep the numbering of the source.

Assays:
Assay in all cases: BLI; Octet RED96; client biotinylated and loaded on streptavidin sensors; Spy or Spy variant in solution at 0.25, 0.5, 1, 1.5 and 2 μM; 40 mM HEPES, 150 mM NaCl, pH 7.5; Kd calculated as koff/kon
Settings in all cases: both partners purified
[1] = biological target: T1, Spy_(29-124) R61D R62D (UniProt P77754 52-147, R61D | R62D)
T1 construct: source: E. coli BL21 (DE3), purified (Ni-NTA, cation exchange, SEC); not shown: His6, N-terminal, cleaved; SUMO, N-terminal, cleaved
T1 sequence (looked up): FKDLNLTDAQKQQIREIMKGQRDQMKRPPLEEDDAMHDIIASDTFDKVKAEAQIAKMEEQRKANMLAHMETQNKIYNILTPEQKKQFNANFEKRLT

[2] = biological target: T2, Spy_(29-124) H96D (UniProt P77754 52-147, H96D)
T2 construct: source: E. coli BL21 (DE3), purified (Ni-NTA, cation exchange, SEC); not shown: His6, N-terminal, cleaved; SUMO, N-terminal, cleaved
T2 sequence (looked up): T1 sequence (looked up) with D33R, D34R, H68D

[3] = biological target: T3, Spy_(29-124) K121D R122D (UniProt P77754 52-147, K121D | R122D)
T3 construct: source: E. coli BL21 (DE3), purified (Ni-NTA, cation exchange, SEC); not shown: His6, N-terminal, cleaved; SUMO, N-terminal, cleaved
T3 sequence (looked up): T1 sequence (looked up) with D33R, D34R, K93D, R94D

[4] = biological target: T4, Spy_(29-124) K75D (UniProt P77754 52-147, K75D)
T4 construct: source: E. coli BL21 (DE3), purified (Ni-NTA, cation exchange, SEC); not shown: His6, N-terminal, cleaved; SUMO, N-terminal, cleaved
T4 sequence (looked up): T1 sequence (looked up) with D33R, D34R, K47D

[5] = biological target: T5, Spy_(29-124) R43D (UniProt P77754 52-147, R43D)
T5 construct: source: E. coli BL21 (DE3), purified (Ni-NTA, cation exchange, SEC); not shown: His6, N-terminal, cleaved; SUMO, N-terminal, cleaved
T5 sequence (looked up): T1 sequence (looked up) with R15D, D33R, D34R

[6] = biological target: T6, Spy_(29-124) R50D (UniProt P77754 52-147, R50D)
T6 construct: source: E. coli BL21 (DE3), purified (Ni-NTA, cation exchange, SEC); not shown: His6, N-terminal, cleaved; SUMO, N-terminal, cleaved
T6 sequence (looked up): T1 sequence (looked up) with R22D, D33R, D34R

kon [1]: 74000 M⁻¹ s⁻¹
kon [2]: 185000 M⁻¹ s⁻¹
kon [3]: 188000 M⁻¹ s⁻¹
kon [4]: 156000 M⁻¹ s⁻¹
kon [5]: 196000 M⁻¹ s⁻¹
kon [6]: 178000 M⁻¹ s⁻¹
B1: Im7 H40W L53A I54A (natural protein)
chain: MELKNSISDYTEAEFVQLLKEIEKENVAATDDVLDVLLEWFVKITEHPDGTDAAYYPSDNRDDSPEGIVKEIKEWRAANGKPGFKQG
modifications: biotin (EZ-link NHS-biotin, 1:1 molar ratio of biotin to protein)
notes: Im7 (colicin E7 immunity protein) with H40W L53A I54A; Spy was made with an N-terminal His6-SUMO tag that was cleaved; also called Im7AAW; partially folded client; source: purified by a similar procedure to Spy
